Reference: patent US20130244255A1, “ANTIBODIES DIRECTED TO GPNMB AND USES THEREOF” (priority 2006, published 2013)
One block for each substance: values may come before it.

What was measured:
[1] = molecular target: GPNMB (CG56972) as expressed by human cell lines (human) (UniProt Q14956); experiment: flow cytometry on HEK293 cells transfected with GPNMB plasmid, secondary antibody alone (background); on empty-vector cells printed as 5.86
[2] = molecular target: GPNMB (CG56972) as expressed by human cell lines (human) (UniProt Q14956); experiment: flow cytometry on HEK293 cells transfected with GPNMB plasmid, PE-conjugated secondary antibody; the same sample on empty-vector cells is printed as 7.96
[3] = molecular target: GPNMB (CG56972) as expressed by human cell lines (human) (UniProt Q14956); experiment: FACS on UACC-62 cells, antibody 1 ug/mL
[4] = molecular target: GPNMB (CG56972) as expressed by human cell lines (human) (UniProt Q14956); experiment: flow cytometry on SK-MEL-2 cells, anti human IgG PE; control sample

Chain of GPNMB (CG56972) as expressed by human cell lines (human) (Q14956 23-492): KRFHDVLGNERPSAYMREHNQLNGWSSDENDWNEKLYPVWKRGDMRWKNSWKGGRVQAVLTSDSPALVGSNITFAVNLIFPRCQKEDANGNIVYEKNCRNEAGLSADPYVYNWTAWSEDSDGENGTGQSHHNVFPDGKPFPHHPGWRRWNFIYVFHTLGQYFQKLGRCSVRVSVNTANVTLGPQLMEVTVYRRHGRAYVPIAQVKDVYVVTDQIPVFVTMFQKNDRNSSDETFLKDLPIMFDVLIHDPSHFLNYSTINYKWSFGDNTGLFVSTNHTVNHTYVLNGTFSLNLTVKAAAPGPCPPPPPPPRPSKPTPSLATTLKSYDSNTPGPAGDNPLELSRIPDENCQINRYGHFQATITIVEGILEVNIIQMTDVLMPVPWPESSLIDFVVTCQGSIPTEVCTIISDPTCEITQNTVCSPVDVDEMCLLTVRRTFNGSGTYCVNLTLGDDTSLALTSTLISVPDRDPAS

Geometric mean [1]: 7.69
Substance: Secondary Ab-PE (antibody)

Geometric mean [2]: 8.63
Substance: isotype-matched control IgG2 antibody

Geo Mean Ratio (relative to pK16) [3]: 1.9
Substance: CR011.2.6.2 (antibody)

Geo Mean [4]: 3.03
Median [4]: 2.84
Substance: Control (antibody)
